Laboratory results taken from patent US20060067886A1, “Gastrin receptor-avid peptide conjugates” (priority 1997, published 2006).

Assay: Biodistribution of radiometal-DOTA-BBN conjugates in CF1 normal mice
Conditions: 1 hour post-injection

Row | SMILES | Avg % ID, Blood [% ID] | Avg % ID, Carcass [% ID] | Avg % ID, Heart [% ID] | Avg % ID, Kidney [% ID] | Avg % ID, L. Intestine [% ID] | Avg % ID, Liver [% ID] | Avg % ID, Lung [% ID] | Avg % ID, Muscle [% ID] | Avg % ID, Pancreas [% ID] | Avg % ID, S. Intestine [% ID] | Avg % ID, Spleen [% ID] | Avg % ID, Stomach [% ID] | Avg % ID/gm, Blood [% ID/gm] | Avg % ID/gm, Heart [% ID/gm] | Avg % ID/gm, L. Intestine [% ID/gm] | Avg % ID/gm, Liver [% ID/gm] | Avg % ID/gm, Lung [% ID/gm] | Avg % ID/gm, Muscle [% ID/gm] | Avg % ID/gm, Pancreas [% ID/gm] | Avg % ID/gm, S. Intestine [% ID/gm] | other results
1 | CSCC[C@H](NC(=O)[C@H](CC(C)C)NC(=O)[C@H](Cc1cnc[nH]1)NC(=O)CNC(=O)[C@@H](NC(=O)[C@H](C)NC(=O)[C@H](Cc1c[nH]c2ccccc12)NC(=O)[C@H](CCC(N)=O)NC(=O)CN1CCN(CC(=O)O)CCN(CC(=O)O)CCN(CC(=O)O)CC1)C(C)C)C(N)=O [149Pm-DOTA-0-BBN[7-14]NH2] | 0.00 ± 0.00 | 1.98 ± 2.27 | 0.00 ± 0.00 | 0.34 ± 0.28 | 0.01 ± 0.02 | 0.16 ± 0.15 | 0.00 ± 0.00 | 0.00 ± 0.00 | 0.07 ± 0.01 | 0.38 ± 0.25 | 0.00 ± 0.00 | 0.02 ± 0.05 | 0.00 ± 0.00 | 0.00 ± 0.00 | 0.01 ± 0.03 | 0.12 ± 0.10 | 0.00 ± 0.00 | 0.00 ± 0.00 | 0.00 ± 0.00 | 0.27 ± 0.17 | Avg % ID/gm, Kidney: 1.04 ± 0.90 % ID/gm; Avg % ID/gm, Spleen: 0.00 ± 0.00 % ID/gm; Avg % ID/gm, Stomach: 0.04 ± 0.08 % ID/gm
2 | CSCC[C@H](NC(=O)[C@H](CC(C)C)NC(=O)[C@H](Cc1c[nH]cn1)NC(=O)CNC(=O)[C@@H](NC(=O)[C@H](C)NC(=O)[C@H](Cc1c[nH]c2ccccc12)NC(=O)[C@H](CCC(N)=O)NC(=O)CCCCNC(=O)CN1CCN(CC(=O)O)CCN(CC(=O)O)CCN(CC(=O)O)CC1)C(C)C)C(N)=O [149Pm-DOTA-5-Ava-BBN[7-14]NH2] | 0.47 ± 0.11 | 6.16 ± 0.75 | 0.06 ± 0.09 | 1.11 ± 0.29 | 3.18 ± 1.18 | 0.37 ± 0.20 | 0.17 ± 0.21 | 0.03 ± 0.04 | 4.25 ± 0.43 | 7.70 ± 0.66 | 0.27 ± 0.13 | 0.77 ± 0.74 | 0.27 ± 0.06 | 0.42 ± 0.59 | 3.53 ± 1.10 | 0.23 ± 0.13 | 0.78 ± 1.08 | 0.24 ± 0.25 | 22.1 ± 5.40 | 5.15 ± 1.20 | Avg % ID/gm, Kidney: 2.81 ± 0.66 % ID/gm; Avg % ID/gm, Spleen: 2.37 ± 1.36 % ID/gm; Avg % ID/gm, Stomach: 1.90 ± 1.60 % ID/gm
3 | CSCC[C@H](NC(=O)[C@H](CC(C)C)NC(=O)[C@H](Cc1cnc[nH]1)NC(=O)CNC(=O)[C@@H](NC(=O)[C@H](C)NC(=O)[C@H](Cc1c[nH]c2ccccc12)NC(=O)[C@H](CCC(N)=O)NC(=O)CCCCCCCNC(=O)CN1CCN(CC(=O)O)CCN(CC(=O)O)CCN(CC(=O)O)CC1)C(C)C)C(N)=O [149Pm-DOTA-8-Aoc-BBN[7-14]NH2] [listing 1 of 2 here] |  |  |  |  |  |  |  |  |  |  |  |  |  |  |  |  |  |  |  |  | tissue uptake at 1 h (CF-1, mouse, in vivo, iv, total radioactivity, Avg % ID/gm, Stomach): 1.16 ± 0.59 %ID/g
4 | CSCC[C@H](NC(=O)[C@H](CC(C)C)NC(=O)[C@H](Cc1cnc[nH]1)NC(=O)CNC(=O)[C@@H](NC(=O)[C@H](C)NC(=O)[C@H](Cc1c[nH]c2ccccc12)NC(=O)[C@H](CCC(N)=O)NC(=O)CCCCCCCNC(=O)CN1CCN(CC(=O)O)CCN(CC(=O)O)CCN(CC(=O)O)CC1)C(C)C)C(N)=O [149Pm-DOTA-8-Aoc-BBN[7-14]NH2] [listing 2 of 2 here] | 0.23 ± 0.26 | 10.30 ± 1.84 | 0.00 ± 0.01 | 1.55 ± 0.47 | 4.43 ± 2.37 |  | 0.02 ± 0.04 | 0.01 ± 0.02 | 7.34 ± 3.51 | 7.84 ± 2.15 | 0.24 ± 0.06 | 0.66 ± 0.35 | 0.12 ± 0.13 |  | 4.14 ± 2.14 | 0.19 ± 0.12 | 0.09 ± 0.14 | 0.09 ± 0.21 | 28.29 ± 13.26 | 12.56 ± 16.70 | 
5 | CSCC[C@H](NC(=O)[C@H](CC(C)C)NC(=O)[C@H](Cc1cnc[nH]1)NC(=O)CNC(=O)[C@@H](NC(=O)[C@H](C)NC(=O)[C@H](Cc1c[nH]c2ccccc12)NC(=O)[C@H](CCC(N)=O)NC(=O)CCNC(=O)CN1CCN(CC(=O)O)CCN(CC(=O)O)CCN(CC(=O)O)CC1)C(C)C)C(N)=O [149Pm-DOTA-β-Ala-BBN[7-14]NH2] | 0.30 ± 0.32 | 1.64 ± 0.38 | 0.02 ± 0.02 | 0.61 ± 0.41 | 0.31 ± 0.06 | 0.23 ± 0.07 | 0.06 ± 0.04 | 0.00 ± 0.01 | 0.46 ± 0.23 | 0.95 ± 0.19 | 0.02 ± 0.04 | 0.10 ± 0.03 | 0.21 ± 0.22 | 0.17 ± 0.24 | 0.42 ± 0.08 | 0.15 ± 0.05 | 0.34 ± 0.30 | 0.04 ± 0.10 | 2.40 ± 1.33 | 0.63 ± 0.20 | Avg % ID/gm, Kidney: 2.05 ± 1.63 % ID/gm; Avg % ID/gm, Spleen: 0.16 ± 0.31 % ID/gm; Avg % ID/gm, Stomach: 0.19 ± 0.11 % ID/gm
6 | CSCC[C@H](NC(=O)[C@H](CC(C)C)NC(=O)[C@H](Cc1cnc[nH]1)NC(=O)CNC(=O)[C@@H](NC(=O)[C@H](C)NC(=O)[C@H](Cc1c[nH]c2ccccc12)NC(=O)[C@H](CCC(N)=O)NC(=O)CN1CCN(CC(=O)O)CCN(CC(=O)O)CCN(CC(=O)O)CC1)C(C)C)C(N)=O [177Lu-DOTA-0-BBN[7-14]NH2] [metal not drawn] | 0.39 ± 0.34 | 4.34 ± 2.64 | 0.01 ± 0.02 | 0.58 ± 0.10 | 0.09 ± 0.12 | 0.19 ± 0.10 | 0.04 ± 0.06 | 0.02 ± 0.03 | 0.06 ± 0.10 | 1.27 ± 1.03 | 0.01 ± 0.01 | 0.05 ± 0.11 | 0.58 ± 0.96 | 0.04 ± 0.09 | 0.07 ± 0.09 | 0.09 ± 0.06 | 0.19 ± 0.26 | 0.09 ± 0.15 | 0.18 ± 0.28 | 0.75 ± 0.60 | Avg % ID/gm, Kidney: 1.21 ± 0.31 % ID/gm; Avg % ID/gm, Spleen: 0.04 ± 0.09 % ID/gm; Avg % ID/gm, Stomach: 0.10 ± 0.21 % ID/gm
